{
  "source": "paper PMC2572732",
  "about": "“Structural Coupling of SH2-Kinase Domains Links Fes and Abl Substrate Recognition and Kinase Activation” (Cell, 2008)",
  "binders": {"B1": {"name": "Fes kinase consensus substrate peptide Ac-IYESL (peptide)", "peptide": "Ac-IYESL", "notes": "consensus substrate peptide of the Fes kinase, derived from peptide library and array screens; also called consensus peptide; source: synthetic peptide"}},
  "key": {"[1]": {"target": "T1, human Fes SH2-kinase unit (residues I448 to the C terminus), unphosphorylated (human, UniProt P07332-1 448-822)", "T1 construct": "Fes tyrosine kinase, human, NP_001996; linker N terminal to the SH2 domain, SH2 domain and C-terminal kinase domain; residues I448 to the C terminus; Crystallised with staurosporine; also called SH2-kinase polypeptide; unphosphorylated Fes; source: E. coli BL21(DE3)-R3, coexpressed with YopH tyrosine phosphatase, purified", "T1 sequence (P07332 448-822)": "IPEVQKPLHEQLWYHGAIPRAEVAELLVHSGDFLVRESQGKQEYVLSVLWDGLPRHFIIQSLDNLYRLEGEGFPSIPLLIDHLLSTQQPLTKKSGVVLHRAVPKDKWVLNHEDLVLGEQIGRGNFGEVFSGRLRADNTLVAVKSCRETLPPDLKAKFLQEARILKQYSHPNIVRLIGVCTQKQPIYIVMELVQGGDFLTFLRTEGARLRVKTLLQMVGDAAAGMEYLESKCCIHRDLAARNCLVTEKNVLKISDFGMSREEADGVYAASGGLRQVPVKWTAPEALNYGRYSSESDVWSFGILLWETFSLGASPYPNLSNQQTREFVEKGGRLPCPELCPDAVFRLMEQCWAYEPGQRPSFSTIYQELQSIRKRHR", "assay": "crystal structure; sitting drops; Fes SH2-kinase with staurosporine (1 mM) and peptide Ac-IYESL (250-300 uM); form II from 20% PEG 3350, 0.1 M sodium malate; form III from 30% mPEG 2000, 0.15 M NaBr", "settings": "both partners purified"}, "[2]": {"target": "T2, human Fes SH2-kinase unit (residues I448 to the C terminus), autophosphorylated on Y713 (human, UniProt P07332-1 448-822, phosphotyrosine at 713)", "T2 construct": "Fes tyrosine kinase, human, NP_001996; Crystallised with staurosporine; also called pY713-Fes; phosphorylated Fes; source: E. coli BL21(DE3)-R3, coexpressed with YopH, purified; autophosphorylated in vitro, purified by gel filtration", "T2 sequence (P07332 448-822)": "as above", "assay": "crystal structure; sitting drops; Fes SH2-kinase with staurosporine (1 mM) and peptide Ac-IYESL (250-300 uM); form II from 20% PEG 3350, 0.1 M sodium malate; form III from 30% mPEG 2000, 0.15 M NaBr", "settings": "both partners purified"}},
  "note": "No end group written: not given here.",
  "data": [
    {"binder": "B1", "values": [
      {"measurement": "binding result", "setting": "[1]", "result": "binds"},
      {"measurement": "binding result", "setting": "[2]", "result": "binds"}
    ]}
  ]
}
